In FireProtDB (doi:10.1021/bi9815243):

B1: Guanyl-specific ribonuclease T1, P00651 (parent)
chain: MMYSKLLTLTTLLLPTALALPSLVERACDYTCGSNCYSSSDVSTAQAAGYQLHEDGETVGSNSYPHKYNNYEGFDFSVSSPYYEWPILSSGDVYSGGSPGADRVVFNENNQLAGVITHTGASGNNFVECT
B2: Guanyl-specific ribonuclease Sa, P05798 (parent)
chain: DVSGTVCLSALPPEATDTLNLIASDGPFPYSQDGVVFQNRESVLPTQSYGYYHEYTVITPGARTRGTRRIITGEATQEDYYTGDHYATFSLIDQTC

Variants of: B1
Conditions: Aspergillus oryzae (strain ATCC 42149 / RIB 40); pH 2.7; 25 °C; Urea; CD; glycine 30 mM; reversible: yes (>95%); structure 1RN1; whole UniProt chain shown

| Variant | ddG of mutation (higher = less stable) | denaturant m value | denaturant midpoint (higher = more stable) | unfolding free energy |
| --- | --- | --- | --- | --- |
| MMYSKLLTLTTLLLPTALALPSLVERACDYTCGSNCYSSSDVSTAQAAGYQLHEDGETVGSNSYPHKYNDYEGFDFSVSSPYYEWPILSSGDVYSGGSPGADRVVFNENNQLAGVITHTGASGNNFVECT [N70D] | 0.5 kcal/mol | 1.66 kcal/mol/M | 3.45 M | 5.71 kcal/mol |

Same assay, conditions: Aspergillus oryzae (strain ATCC 42149 / RIB 40); pH 2.7; 25 °C; Urea; Fluorescence; glycine 30 mM; transition: 2; reversible: Yes; structure 1RN1; whole UniProt chain shown

| Variant | denaturant m value | denaturant midpoint (higher = more stable) | unfolding free energy |
| --- | --- | --- | --- |
| MMYSKLLTLTTLLLPTALALPSLVERACDYTCGSNCYSSSDVSTAQAAGYQLHEDGETVGSNSYPHKYNDYEGFDFSVSSPYYEWPILSSGDVYSGGSPGADRVVFNENNQLAGVITHTGASGNNFVECT [N70D] | 1.66 kcal/mol/M | 3.45 M | 5.71 kcal/mol |

Same assay, conditions: Aspergillus oryzae (strain ATCC 42149 / RIB 40); pH 7; 25 °C; Urea; CD; MOPS 30 mM; reversible: yes (>95%); structure 1RN1; whole UniProt chain shown

| Variant | ddG of mutation (higher = less stable) | denaturant m value | denaturant midpoint (higher = more stable) | unfolding free energy |
| --- | --- | --- | --- | --- |
| MMYSKLLTLTTLLLPTALALPSLVERACDYTCGSNCYSSSDVSTAQAAGYQLHEDGETVGSNSYPHKYNDYEGFDFSVSSPYYEWPILSSGDVYSGGSPGADRVVFNENNQLAGVITHTGASGNNFVECT [N70D] | 2 kcal/mol | 1.25 kcal/mol/M | 3.54 M | 4.43 kcal/mol |
| MMYSKLLTLTTLLLPTALALPSLVERACDYTCGSNCYSSSDVSTAQAAGYQLHEDGETVGSNSYPHKYNSYEGFDFSVSSPYYEWPILSSGDVYSGGSPGADRVVFNENNQLAGVITHTGASGNNFVECT [N70S] | 1.9 kcal/mol | 1.22 kcal/mol/M | 3.6 M | 4.39 kcal/mol |
| MMYSKLLTLTTLLLPTALALPSLVERACDYTCGSNCYSSSDVSTAQAAGYQLHEDGETVGSNSYPHKYNAYEGFDFSVSSPYYEWPILSSGDVYSGGSPGADRVVFNENNQLAGVITHTGASGNNFVECT [N70A] | 2 kcal/mol | 1.17 kcal/mol/M | 3.51 M | 4.12 kcal/mol |

Same assay, conditions: Aspergillus oryzae (strain ATCC 42149 / RIB 40); pH 7; 25 °C; Urea; Fluorescence; MOPS 30 mM; transition: 2; reversible: Yes; structure 1RN1; whole UniProt chain shown

| Variant | ddG of mutation (higher = less stable) | denaturant m value | denaturant midpoint (higher = more stable) | unfolding free energy |
| --- | --- | --- | --- | --- |
| MMYSKLLTLTTLLLPTALALPSLVERACDYTCGSNCYSSSDVSTAQAAGYQLHEDGETVGSNSYPHKYNDYEGFDFSVSSPYYEWPILSSGDVYSGGSPGADRVVFNENNQLAGVITHTGASGNNFVECT [N70D] | 2 kcal/mol | 1.25 kcal/mol/M | 3.54 M | 4.43 kcal/mol |
| MMYSKLLTLTTLLLPTALALPSLVERACDYTCGSNCYSSSDVSTAQAAGYQLHEDGETVGSNSYPHKYNSYEGFDFSVSSPYYEWPILSSGDVYSGGSPGADRVVFNENNQLAGVITHTGASGNNFVECT [N70S] | 1.9 kcal/mol | 1.22 kcal/mol/M | 3.6 M | 4.39 kcal/mol |
| MMYSKLLTLTTLLLPTALALPSLVERACDYTCGSNCYSSSDVSTAQAAGYQLHEDGETVGSNSYPHKYNAYEGFDFSVSSPYYEWPILSSGDVYSGGSPGADRVVFNENNQLAGVITHTGASGNNFVECT [N70A] | 2 kcal/mol | 1.17 kcal/mol/M | 3.51 M | 4.12 kcal/mol |

Same assay, conditions: Aspergillus oryzae (strain ATCC 42149 / RIB 40); pH 7; 50.8 °C; Thermal; CD; MOPS 30 mM; reversible: yes (>95%); structure 1RN1; whole UniProt chain shown

| Variant | ddG of mutation (higher = less stable) |
| --- | --- |
| MMYSKLLTLTTLLLPTALALPSLVERACDYTCGSNCYSSSDVSTAQAAGYQLHEDGETVGSNSYPHKYNDYEGFDFSVSSPYYEWPILSSGDVYSGGSPGADRVVFNENNQLAGVITHTGASGNNFVECT [N70D] | 1.6 kcal/mol |
| MMYSKLLTLTTLLLPTALALPSLVERACDYTCGSNCYSSSDVSTAQAAGYQLHEDGETVGSNSYPHKYNSYEGFDFSVSSPYYEWPILSSGDVYSGGSPGADRVVFNENNQLAGVITHTGASGNNFVECT [N70S] | 1.5 kcal/mol |
| MMYSKLLTLTTLLLPTALALPSLVERACDYTCGSNCYSSSDVSTAQAAGYQLHEDGETVGSNSYPHKYNAYEGFDFSVSSPYYEWPILSSGDVYSGGSPGADRVVFNENNQLAGVITHTGASGNNFVECT [N70A] | 1.6 kcal/mol |

Same assay, conditions: Aspergillus oryzae (strain ATCC 42149 / RIB 40); pH 7; Thermal; CD; MOPS 30 mM; reversible: yes (>95%); structure 1RN1; whole UniProt chain shown

| Variant | Tm | change of melting temperature, mutant - wild type (higher = more stable) | unfolding enthalpy (van 't Hoff) |
| --- | --- | --- | --- |
| MMYSKLLTLTTLLLPTALALPSLVERACDYTCGSNCYSSSDVSTAQAAGYQLHEDGETVGSNSYPHKYNDYEGFDFSVSSPYYEWPILSSGDVYSGGSPGADRVVFNENNQLAGVITHTGASGNNFVECT [N70D] | 45.3 °C | -5.5 °C | 84.2 kcal/mol |
| MMYSKLLTLTTLLLPTALALPSLVERACDYTCGSNCYSSSDVSTAQAAGYQLHEDGETVGSNSYPHKYNSYEGFDFSVSSPYYEWPILSSGDVYSGGSPGADRVVFNENNQLAGVITHTGASGNNFVECT [N70S] | 45.8 °C | -5 °C | 89.6 kcal/mol |
| MMYSKLLTLTTLLLPTALALPSLVERACDYTCGSNCYSSSDVSTAQAAGYQLHEDGETVGSNSYPHKYNAYEGFDFSVSSPYYEWPILSSGDVYSGGSPGADRVVFNENNQLAGVITHTGASGNNFVECT [N70A] | 45.6 °C | -5.2 °C | 86.8 kcal/mol |

Same assay, conditions: Aspergillus oryzae (strain ATCC 42149 / RIB 40); pH 7; Thermal; CD; MOPS 30 mM; transition: 2; reversible: Yes; structure 1RN1; whole UniProt chain shown

| Variant | Tm | change of melting temperature, mutant - wild type (higher = more stable) | unfolding enthalpy (van 't Hoff) |
| --- | --- | --- | --- |
| MMYSKLLTLTTLLLPTALALPSLVERACDYTCGSNCYSSSDVSTAQAAGYQLHEDGETVGSNSYPHKYNSYEGFDFSVSSPYYEWPILSSGDVYSGGSPGADRVVFNENNQLAGVITHTGASGNNFVECT [N70S] | 45.8 °C | -5 °C | 89.6 kcal/mol |
| MMYSKLLTLTTLLLPTALALPSLVERACDYTCGSNCYSSSDVSTAQAAGYQLHEDGETVGSNSYPHKYNAYEGFDFSVSSPYYEWPILSSGDVYSGGSPGADRVVFNENNQLAGVITHTGASGNNFVECT [N70A] | 45.6 °C | -5.2 °C | 86.8 kcal/mol |

Variants of: B2
Conditions: Kitasatospora aureofaciens; pH 7; 48.4 °C; Thermal; CD; MOPS 30 mM; reversible: yes (>95%); structure 1RGG; whole UniProt chain shown

| Variant | ddG of mutation (higher = less stable) |
| --- | --- |
| DVSGTVCLSALPPEATDTLNLIASDGPFPYSQDGVVFQARESVLPTQSYGYYHEYTVITPGARTRGTRRIITGEATQEDYYTGDHYATFSLIDQTC [N39A] | 2.2 kcal/mol |
| DVSGTVCLSALPPEATDTLNLIASDGPFPYSQDGVVFQSRESVLPTQSYGYYHEYTVITPGARTRGTRRIITGEATQEDYYTGDHYATFSLIDQTC [N39S] | 2.3 kcal/mol |
| DVSGTVCLSALPPEATDTLNLIASDGPFPYSQDGVVFQDRESVLPTQSYGYYHEYTVITPGARTRGTRRIITGEATQEDYYTGDHYATFSLIDQTC [N39D] | 1.5 kcal/mol |

Same assay, conditions: Kitasatospora aureofaciens; pH 7; Thermal; CD; MOPS 30 mM; reversible: yes (>95%); structure 1RGG; whole UniProt chain shown

| Variant | Tm | change of melting temperature, mutant - wild type (higher = more stable) | unfolding enthalpy (van 't Hoff) |
| --- | --- | --- | --- |
| DVSGTVCLSALPPEATDTLNLIASDGPFPYSQDGVVFQARESVLPTQSYGYYHEYTVITPGARTRGTRRIITGEATQEDYYTGDHYATFSLIDQTC [N39A] | 40.8 °C | -7.6 °C | 70.4 kcal/mol |
| DVSGTVCLSALPPEATDTLNLIASDGPFPYSQDGVVFQSRESVLPTQSYGYYHEYTVITPGARTRGTRRIITGEATQEDYYTGDHYATFSLIDQTC [N39S] | 40.4 °C | -8 °C | 73.5 kcal/mol |
| DVSGTVCLSALPPEATDTLNLIASDGPFPYSQDGVVFQDRESVLPTQSYGYYHEYTVITPGARTRGTRRIITGEATQEDYYTGDHYATFSLIDQTC [N39D] | 43.2 °C | -5.2 °C | 83.5 kcal/mol |

Same assay, conditions: Kitasatospora aureofaciens; pH 7; Thermal; CD; MOPS 30 mM; transition: 2; reversible: Yes; structure 1RGG; whole UniProt chain shown

| Variant | Tm | change of melting temperature, mutant - wild type (higher = more stable) | unfolding enthalpy (van 't Hoff) |
| --- | --- | --- | --- |
| DVSGTVCLSALPPEATDTLNLIASDGPFPYSQDGVVFQARESVLPTQSYGYYHEYTVITPGARTRGTRRIITGEATQEDYYTGDHYATFSLIDQTC [N39A] | 40.8 °C | -7.6 °C | 70.4 kcal/mol |
| DVSGTVCLSALPPEATDTLNLIASDGPFPYSQDGVVFQSRESVLPTQSYGYYHEYTVITPGARTRGTRRIITGEATQEDYYTGDHYATFSLIDQTC [N39S] | 40.4 °C | -8 °C | 73.5 kcal/mol |
| DVSGTVCLSALPPEATDTLNLIASDGPFPYSQDGVVFQDRESVLPTQSYGYYHEYTVITPGARTRGTRRIITGEATQEDYYTGDHYATFSLIDQTC [N39D] | 43.2 °C | -5.2 °C | 83.5 kcal/mol |

Same assay, conditions: Kitasatospora aureofaciens; pH 2; Thermal; CD; MOPS 30 mM; transition: 2; reversible: Yes; structure 1RGG; whole UniProt chain shown

| Variant | Tm | change of melting temperature, mutant - wild type (higher = more stable) | unfolding enthalpy (van 't Hoff) |
| --- | --- | --- | --- |
| DVSGTVCLSALPPEATDTLNLIASDGPFPYSQDGVVFQDRESVLPTQSYGYYHEYTVITPGARTRGTRRIITGEATQEDYYTGDHYATFSLIDQTC [N39D] | 23.3 °C | -4.7 °C | 50.3 kcal/mol |
